Publication PMC2637931

Legend:
[1] = biological target: soluble portion of the transferrin receptor expressed as a recombinant entity (UniProt P02786)
[2] = biological target: sTFR with 5-hydroxytryptophan substituted for Trp (UniProt P02786)

Sequence of soluble portion of the transferrin receptor expressed as a recombinant entity (P02786 122-760): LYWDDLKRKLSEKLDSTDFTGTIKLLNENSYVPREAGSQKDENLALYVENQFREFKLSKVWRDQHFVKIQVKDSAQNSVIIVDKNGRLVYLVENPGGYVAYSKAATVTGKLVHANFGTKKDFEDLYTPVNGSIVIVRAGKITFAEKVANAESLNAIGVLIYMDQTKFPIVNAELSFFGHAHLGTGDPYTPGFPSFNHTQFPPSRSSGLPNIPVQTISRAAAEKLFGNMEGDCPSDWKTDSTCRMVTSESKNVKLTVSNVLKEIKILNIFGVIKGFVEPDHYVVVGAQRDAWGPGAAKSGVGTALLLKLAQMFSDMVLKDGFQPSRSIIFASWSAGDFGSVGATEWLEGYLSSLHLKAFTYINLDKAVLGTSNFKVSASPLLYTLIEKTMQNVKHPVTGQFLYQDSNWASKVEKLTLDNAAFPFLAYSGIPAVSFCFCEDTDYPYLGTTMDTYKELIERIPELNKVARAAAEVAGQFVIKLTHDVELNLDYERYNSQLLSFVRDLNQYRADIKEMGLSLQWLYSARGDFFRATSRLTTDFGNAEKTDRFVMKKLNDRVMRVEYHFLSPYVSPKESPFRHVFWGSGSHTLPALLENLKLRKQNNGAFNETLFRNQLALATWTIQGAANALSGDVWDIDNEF

**Q.** Which k (obsC1) of iron release from the complex at pH 5.6, excitation 280 nm [1] does the source give for “FeC hTF with 5-hydroxytryptophan substituted for Trp (from UniProt P02787 20-698) (ligand)” here?
**A.** 25.8 min^-1

**Q.** What about the k (obsC1) of iron release from the complex at pH 5.6, excitation 315 nm [1] of the same substance?
**A.** 14.1 min^-1

**Q.** What about the k (obsC2) of iron release from the complex at pH 5.6, excitation 280 nm [1] of the same substance?
**A.** 8.3 min^-1

**Q.** What about the k (obsC2) of iron release from the complex at pH 5.6, excitation 315 nm [1] of the same substance?
**A.** 2.8 min^-1

**Q.** What about the k (obsC1) of iron release from the complex at pH 5.6, excitation 280 nm [2] of the same substance?
**A.** 18.1 min^-1

**Q.** What about the k (obsC1) of iron release from the complex at pH 5.6, excitation 315 nm [2] of the same substance?
**A.** 22.4 min^-1

**Q.** What about the k (obsC2) of iron release from the complex at pH 5.6, excitation 280 nm [2] of the same substance?
**A.** 4 min^-1

**Q.** What about the k (obsC2) of iron release from the complex at pH 5.6, excitation 315 nm [2] of the same substance?
**A.** 3.4 min^-1
